This data set concerns Escherichia coli TOP10. Nature of the data set: shrunken log2 fold change of peptide-encoding DNA abundance (4.5 h post-induction vs induction); higher = less antimicrobial activity (less host growth inhibition). The conditions noted are these: time post-induction: 4.5 h; library: site-saturation at positions 5, 18, 19, 20.
Regarding RRIRCRPPRLPRPRPRPTGYPRP, the “shrunken log2 fold change” value is -0.0363.
With RRIRFRPPRLPRPRPRPTFSPRP, the “shrunken log2 fold change” value is -0.0425.
Turning to RRIRKRPPRLPRPRPRPNANPRP, the “shrunken log2 fold change” value worked out at 0.135.
For the sequence RRIRIRPPRLPRPRPRPYQHPRP, the “shrunken log2 fold change” value is -0.136.
As to RRIRRRPPRLPRPRPRPGIWPRP, the “shrunken log2 fold change” value amounted to 0.455.
With RRIRGRPPRLPRPRPRPFMAPRP, the “shrunken log2 fold change” value is 0.211.
With RRIRDRPPRLPRPRPRPNHLPRP, the “shrunken log2 fold change” value stood at 0.000895.
As to RRIRSRPPRLPRPRPRPWEAPRP, the “shrunken log2 fold change” value stood at 0.019.
For RRIRKRPPRLPRPRPRPICEPRP, the “shrunken log2 fold change” value was determined as 0.115.
RRIRNRPPRLPRPRPRPQVHPRP: the “shrunken log2 fold change” value is -0.161.
As to RRIRWRPPRLPRPRPRPNLLPRP, the “shrunken log2 fold change” value was determined as 0.0966.
RRIRIRPPRLPRPRPRPGDEPRP: the “shrunken log2 fold change” value is -0.0396.
For the sequence RRIRCRPPRLPRPRPRPYNVPRP, the “shrunken log2 fold change” value was -0.434.
Turning to RRIRWRPPRLPRPRPRPCWKPRP, the “shrunken log2 fold change” value is -0.00256.
For RRIRQRPPRLPRPRPRPLHEPRP, the “shrunken log2 fold change” value came to 0.149.
Consider RRIRGRPPRLPRPRPRPMQRPRP, for which the “shrunken log2 fold change” value was determined as 1.29.
Under RRIRQRPPRLPRPRPRPQTIPRP stands -0.16.
To RRIRGRPPRLPRPRPRPELPPRP belongs 1.33.
Take RRIRIRPPRLPRPRPRPLFPPRP: the “shrunken log2 fold change” value is -0.42.
Take RRIRQRPPRLPRPRPRPTSFPRP: the “shrunken log2 fold change” value was -0.0413.
Take RRIRIRPPRLPRPRPRPHAMPRP: the “shrunken log2 fold change” value was -0.125.
Under RRIRPRPPRLPRPRPRPYDLPRP stands -0.293.
On to RRIRKRPPRLPRPRPRPWQDPRP, for which the “shrunken log2 fold change” value is -0.0361.
RRIRGRPPRLPRPRPRPVANPRP: the “shrunken log2 fold change” value came out at 0.623.
Take RRIRGRPPRLPRPRPRPTVYPRP: the “shrunken log2 fold change” value worked out at 0.185.
On to RRIRVRPPRLPRPRPRPITCPRP, for which the “shrunken log2 fold change” value was -0.324.
RRIRNRPPRLPRPRPRPLWVPRP: the “shrunken log2 fold change” value was -0.0871.
As to RRIRNRPPRLPRPRPRPVPIPRP, the “shrunken log2 fold change” value is -0.0984.
Under RRIRSRPPRLPRPRPRPTMCPRP stands -0.0421; under RRIRPRPPRLPRPRPRPPEIPRP, -0.0297; under RRIRCRPPRLPRPRPRPNQKPRP, 0.184.
Regarding RRIRRRPPRLPRPRPRPHHSPRP, the “shrunken log2 fold change” value is -0.57.
With RRIRIRPPRLPRPRPRPICHPRP, the “shrunken log2 fold change” value was -0.326.
For RRIRARPPRLPRPRPRPYDIPRP, the “shrunken log2 fold change” value is 0.00126.
With RRIRLRPPRLPRPRPRPMEFPRP, the “shrunken log2 fold change” value was -0.00133.
Turning to RRIRDRPPRLPRPRPRPPIKPRP, the “shrunken log2 fold change” value was -0.204.
For RRIRHRPPRLPRPRPRPMVHPRP, the “shrunken log2 fold change” value was found to be 0.00748.
Turning to RRIRCRPPRLPRPRPRPPMCPRP, the “shrunken log2 fold change” value was -0.23.
With RRIRVRPPRLPRPRPRPYCDPRP, the “shrunken log2 fold change” value is -0.348.
In the case of RRIRGRPPRLPRPRPRPMTIPRP, the “shrunken log2 fold change” value stood at 0.0989.
RRIRMRPPRLPRPRPRPVVRPRP: the “shrunken log2 fold change” value is 0.0837.
For RRIRTRPPRLPRPRPRPVNAPRP, the “shrunken log2 fold change” value is -0.189.
RRIRCRPPRLPRPRPRPGAAPRP: the “shrunken log2 fold change” value worked out at 0.956.
To RRIRQRPPRLPRPRPRPTFEPRP belongs -0.177; to RRIRPRPPRLPRPRPRPFQNPRP, -0.445.
To RRIRGRPPRLPRPRPRPNKGPRP belongs -0.0466.
In the case of RRIRGRPPRLPRPRPRPNSIPRP, the “shrunken log2 fold change” value stood at 0.00326.
For RRIRIRPPRLPRPRPRPPNIPRP, the “shrunken log2 fold change” value was -0.0703.
RRIRCRPPRLPRPRPRPNPWPRP: the “shrunken log2 fold change” value was determined as 0.017.
Regarding RRIRCRPPRLPRPRPRPFQTPRP, the “shrunken log2 fold change” value was -0.153.
For RRIRTRPPRLPRPRPRPSNAPRP, the “shrunken log2 fold change” value was -0.424.
In the case of RRIRWRPPRLPRPRPRPVGDPRP, the “shrunken log2 fold change” value is 0.33.
To RRIRKRPPRLPRPRPRPNQMPRP belongs 0.234.
Take RRIRCRPPRLPRPRPRPRMHPRP: the “shrunken log2 fold change” value is 0.066.
Regarding RRIRTRPPRLPRPRPRPFHGPRP, the “shrunken log2 fold change” value was -0.0212.
As to RRIRVRPPRLPRPRPRPTKHPRP, the “shrunken log2 fold change” value is -0.135.
As to RRIRPRPPRLPRPRPRPQSGPRP, the “shrunken log2 fold change” value came out at 0.259.
Consider RRIRYRPPRLPRPRPRPVSSPRP, for which the “shrunken log2 fold change” value was -0.272.
As for RRIRLRPPRLPRPRPRPRVGPRP, the “shrunken log2 fold change” value is 0.295.
To RRIRWRPPRLPRPRPRPYAEPRP belongs 0.258; to RRIRLRPPRLPRPRPRPLFQPRP, -0.322; to RRIRTRPPRLPRPRPRPQRNPRP, -0.115.
To RRIRRRPPRLPRPRPRPFFFPRP belongs 0.504; to RRIRARPPRLPRPRPRPQHGPRP, -0.265.
Turning to RRIRVRPPRLPRPRPRPHHCPRP, the “shrunken log2 fold change” value is -0.74.
RRIRHRPPRLPRPRPRPWLLPRP: the “shrunken log2 fold change” value was -0.397.
For the sequence RRIRFRPPRLPRPRPRPWSRPRP, the “shrunken log2 fold change” value was -0.147.
On to RRIRIRPPRLPRPRPRPDCYPRP, for which the “shrunken log2 fold change” value was -0.226.
As to RRIRKRPPRLPRPRPRPKAKPRP, the “shrunken log2 fold change” value was found to be 0.0663.
Under RRIRFRPPRLPRPRPRPRNSPRP stands 0.168; under RRIRFRPPRLPRPRPRPSGFPRP, -0.207.
RRIRCRPPRLPRPRPRPTYCPRP: the “shrunken log2 fold change” value is -0.279.
Under RRIRNRPPRLPRPRPRPLCRPRP stands -0.372; under RRIRVRPPRLPRPRPRPNMDPRP, -0.506.
Under RRIRVRPPRLPRPRPRPVGLPRP stands 0.216; under RRIRERPPRLPRPRPRPKFVPRP, -0.287.
As to RRIRGRPPRLPRPRPRPYDWPRP, the “shrunken log2 fold change” value worked out at 0.0669.
As for RRIRTRPPRLPRPRPRPGEGPRP, the “shrunken log2 fold change” value amounted to 0.177.
With RRIRNRPPRLPRPRPRPLGMPRP, the “shrunken log2 fold change” value is -0.109.
Regarding RRIRCRPPRLPRPRPRPTKHPRP, the “shrunken log2 fold change” value came out at 0.00206.
With RRIRWRPPRLPRPRPRPFPPPRP, the “shrunken log2 fold change” value is -0.0255.
Take RRIRHRPPRLPRPRPRPAMFPRP: the “shrunken log2 fold change” value was found to be 0.0207.
To RRIRDRPPRLPRPRPRPRDVPRP belongs 0.128; to RRIRVRPPRLPRPRPRPMLQPRP, 0.154; to RRIRVRPPRLPRPRPRPYSEPRP, -0.217.
Take RRIRLRPPRLPRPRPRPDKEPRP: the “shrunken log2 fold change” value came out at 0.0143.
For the sequence RRIRVRPPRLPRPRPRPCLHPRP, the “shrunken log2 fold change” value was -0.947.
To RRIRKRPPRLPRPRPRPILIPRP belongs 0.0193.
Regarding RRIRCRPPRLPRPRPRPKHTPRP, the “shrunken log2 fold change” value is -0.0232.
RRIRDRPPRLPRPRPRPVSVPRP: the “shrunken log2 fold change” value is -0.0329.
To RRIRSRPPRLPRPRPRPRKQPRP belongs 0.248; to RRIRLRPPRLPRPRPRPSHLPRP, -0.491.
On to RRIRGRPPRLPRPRPRPDGNPRP, for which the “shrunken log2 fold change” value turned out to be 0.276.
For the sequence RRIRCRPPRLPRPRPRPIEPPRP, the “shrunken log2 fold change” value was 0.159.
Under RRIRCRPPRLPRPRPRPNMPPRP stands -0.627; under RRIRDRPPRLPRPRPRPPSEPRP, 0.459.
Turning to RRIRKRPPRLPRPRPRPRLSPRP, the “shrunken log2 fold change” value stood at 0.0586.
As to RRIRERPPRLPRPRPRPWAMPRP, the “shrunken log2 fold change” value was -0.129.
To RRIRSRPPRLPRPRPRPWVYPRP belongs -0.14.
For RRIRSRPPRLPRPRPRPGHWPRP, the “shrunken log2 fold change” value came to 0.286.
As for RRIRSRPPRLPRPRPRPNSPPRP, the “shrunken log2 fold change” value was -0.149.
For RRIRSRPPRLPRPRPRPNECPRP, the “shrunken log2 fold change” value was -0.136.
Regarding RRIRMRPPRLPRPRPRPPEKPRP, the “shrunken log2 fold change” value turned out to be 2.49.
For RRIRCRPPRLPRPRPRPSYLPRP, the “shrunken log2 fold change” value was -1.
Under RRIRQRPPRLPRPRPRPTPYPRP stands -0.266.
For the sequence RRIRKRPPRLPRPRPRPGNLPRP, the “shrunken log2 fold change” value amounted to 0.0368.
With RRIRNRPPRLPRPRPRPMATPRP, the “shrunken log2 fold change” value was -0.0123.
On to RRIRNRPPRLPRPRPRPELAPRP, for which the “shrunken log2 fold change” value worked out at 0.0428.
On to RRIRKRPPRLPRPRPRPWLFPRP, for which the “shrunken log2 fold change” value is 0.202.
Turning to RRIRLRPPRLPRPRPRPGGIPRP, the “shrunken log2 fold change” value was -0.0154.
On to RRIRGRPPRLPRPRPRPLVEPRP, for which the “shrunken log2 fold change” value is 1.2.
RRIRTRPPRLPRPRPRPMICPRP: the “shrunken log2 fold change” value is -0.0677.
RRIRHRPPRLPRPRPRPMGCPRP: the “shrunken log2 fold change” value is -0.000946.
For RRIRGRPPRLPRPRPRPVGDPRP, the “shrunken log2 fold change” value was 0.802.
As for RRIRPRPPRLPRPRPRPAWVPRP, the “shrunken log2 fold change” value was 0.401.
Take RRIRWRPPRLPRPRPRPNLNPRP: the “shrunken log2 fold change” value was -0.401.
To RRIRWRPPRLPRPRPRPFKEPRP belongs -0.139; to RRIRFRPPRLPRPRPRPYWNPRP, -0.388; to RRIRHRPPRLPRPRPRPRYKPRP, -0.424.
For the sequence RRIRVRPPRLPRPRPRPLKYPRP, the “shrunken log2 fold change” value is -0.136.
With RRIRVRPPRLPRPRPRPDDNPRP, the “shrunken log2 fold change” value was -0.0966.
To RRIRSRPPRLPRPRPRPYEEPRP belongs -0.932; to RRIRARPPRLPRPRPRPYDMPRP, -0.0195.
For the sequence RRIRGRPPRLPRPRPRPINWPRP, the “shrunken log2 fold change” value was determined as 0.193.
Under RRIRYRPPRLPRPRPRPCHNPRP stands -1.52.

The values are drawn from the supplement of paper PMC9112550, “Optimization of the antimicrobial peptide Bac7 by deep mutational scanning” (BMC Biology, 2022).
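Further: peptides expressed intracellularly from a pBAD plasmid library in pooled LB shake-flask culture, induced with 0.3% L-arabinose, DNA abundance read by NGS, three biological replicates, DESeq2 with apeglm shrinkage.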
